According to US20180258408A1:
Where “and” joins values, the source holds several entries; their conditions need not be identical. Identical values can stand only once.

Target: M6P receptors on MEF-1 fibroblasts
Test: cell-based or functional assay

Row | Binder | Cell uptake % of unmodified sulfamidase uptake (% of unmodified sulfamidase uptake) | specific activity in cell homogenate (endocytosis in MEF-1 cells) (% of unmodified recombinant sulfamidase)
1 | sulfamidase modified with R1 oxidation at 22 °C, 120 min, 10 mmol/L sodium meta-periodate (enzyme, N-glycans oxidised with periodate (22 °C, 120 min, 10 mmol/L), then reduced with borohydride as in new method 1) RPRNALLLLADDGGFESGAYNNSAIATPHLDALARRSLLFRNAFTSVSSCSPSRASLLTGLPQHQNGMYGLHQDVHHFNSFDKVRSLPLLLSQAGVRTGIIGKKHVGPETVYPFDFAYTEENGSVLQVGRNITRIKLLVRKFLQTQDDRPFFLYVAFHDPHRCGHSQPQYGTFCEKFGNGESGMGRIPDWTPQAYDPLDVLVPYFVPNTPAARADLAAQYTTVGRMDQGVGLVLQELRDAGVLNDTLVIFTSDNGIPFPSGRTNLYWPGTAEPLLVSSPEHPKRWGQVSEAYVSLLDLTPTILDWFSIPYPSYAIFGSKTIHLTGRSLLPALEAEPLWATVFGSQSHHEVTMSYPMRSVQHRHFRLVHNLNFKMPFPIDQDFYVSPTFQDLLNRTTAGQPTGWYKDLRHYYYRARWELYDRSRDPHETQNLATDPRFAQLLEMLRDQLAKWQWETHDPWVCAPDGVLEEKLSPQCQPLHNEL | 8.5 | 
2 | sulfamidase modified according to new method 4 (enzyme, N-glycans oxidised with 20 mM sodium meta-periodate (0 °C, 120 min) and reduced with 10 mM sodium borohydride; FGly50 about 11% converted to Ser) RPRNALLLLADDGGFESGAYNNSAIATPHLDALARRSLLFRNAFTSVSSCSPSRASLLTGLPQHQNGMYGLHQDVHHFNSFDKVRSLPLLLSQAGVRTGIIGKKHVGPETVYPFDFAYTEENGSVLQVGRNITRIKLLVRKFLQTQDDRPFFLYVAFHDPHRCGHSQPQYGTFCEKFGNGESGMGRIPDWTPQAYDPLDVLVPYFVPNTPAARADLAAQYTTVGRMDQGVGLVLQELRDAGVLNDTLVIFTSDNGIPFPSGRTNLYWPGTAEPLLVSSPEHPKRWGQVSEAYVSLLDLTPTILDWFSIPYPSYAIFGSKTIHLTGRSLLPALEAEPLWATVFGSQSHHEVTMSYPMRSVQHRHFRLVHNLNFKMPFPIDQDFYVSPTFQDLLNRTTAGQPTGWYKDLRHYYYRARWELYDRSRDPHETQNLATDPRFAQLLEMLRDQLAKWQWETHDPWVCAPDGVLEEKLSPQCQPLHNEL |  | < 10
3 | sulfamidase modified with R1 oxidation at 8 °C, 60 min, 20 mmol/L sodium meta-periodate (enzyme, N-glycans oxidised with periodate (8 °C, 60 min, 20 mmol/L), then reduced with borohydride as in new method 1) RPRNALLLLADDGGFESGAYNNSAIATPHLDALARRSLLFRNAFTSVSSCSPSRASLLTGLPQHQNGMYGLHQDVHHFNSFDKVRSLPLLLSQAGVRTGIIGKKHVGPETVYPFDFAYTEENGSVLQVGRNITRIKLLVRKFLQTQDDRPFFLYVAFHDPHRCGHSQPQYGTFCEKFGNGESGMGRIPDWTPQAYDPLDVLVPYFVPNTPAARADLAAQYTTVGRMDQGVGLVLQELRDAGVLNDTLVIFTSDNGIPFPSGRTNLYWPGTAEPLLVSSPEHPKRWGQVSEAYVSLLDLTPTILDWFSIPYPSYAIFGSKTIHLTGRSLLPALEAEPLWATVFGSQSHHEVTMSYPMRSVQHRHFRLVHNLNFKMPFPIDQDFYVSPTFQDLLNRTTAGQPTGWYKDLRHYYYRARWELYDRSRDPHETQNLATDPRFAQLLEMLRDQLAKWQWETHDPWVCAPDGVLEEKLSPQCQPLHNEL | 6.1 and 6.5 | 
4 | sulfamidase modified with R1 oxidation at 0 °C, 30 min, 40 mmol/L sodium meta-periodate (enzyme, N-glycans oxidised with periodate (0 °C, 30 min, 40 mmol/L), then reduced with borohydride as in new method 1) RPRNALLLLADDGGFESGAYNNSAIATPHLDALARRSLLFRNAFTSVSSCSPSRASLLTGLPQHQNGMYGLHQDVHHFNSFDKVRSLPLLLSQAGVRTGIIGKKHVGPETVYPFDFAYTEENGSVLQVGRNITRIKLLVRKFLQTQDDRPFFLYVAFHDPHRCGHSQPQYGTFCEKFGNGESGMGRIPDWTPQAYDPLDVLVPYFVPNTPAARADLAAQYTTVGRMDQGVGLVLQELRDAGVLNDTLVIFTSDNGIPFPSGRTNLYWPGTAEPLLVSSPEHPKRWGQVSEAYVSLLDLTPTILDWFSIPYPSYAIFGSKTIHLTGRSLLPALEAEPLWATVFGSQSHHEVTMSYPMRSVQHRHFRLVHNLNFKMPFPIDQDFYVSPTFQDLLNRTTAGQPTGWYKDLRHYYYRARWELYDRSRDPHETQNLATDPRFAQLLEMLRDQLAKWQWETHDPWVCAPDGVLEEKLSPQCQPLHNEL | 3.8 | 
5 | sulfamidase modified with R1 oxidation at 0 °C, 30 min, 10 mmol/L sodium meta-periodate (enzyme, N-glycans oxidised with periodate (0 °C, 30 min, 10 mmol/L), then reduced with borohydride as in new method 1) RPRNALLLLADDGGFESGAYNNSAIATPHLDALARRSLLFRNAFTSVSSCSPSRASLLTGLPQHQNGMYGLHQDVHHFNSFDKVRSLPLLLSQAGVRTGIIGKKHVGPETVYPFDFAYTEENGSVLQVGRNITRIKLLVRKFLQTQDDRPFFLYVAFHDPHRCGHSQPQYGTFCEKFGNGESGMGRIPDWTPQAYDPLDVLVPYFVPNTPAARADLAAQYTTVGRMDQGVGLVLQELRDAGVLNDTLVIFTSDNGIPFPSGRTNLYWPGTAEPLLVSSPEHPKRWGQVSEAYVSLLDLTPTILDWFSIPYPSYAIFGSKTIHLTGRSLLPALEAEPLWATVFGSQSHHEVTMSYPMRSVQHRHFRLVHNLNFKMPFPIDQDFYVSPTFQDLLNRTTAGQPTGWYKDLRHYYYRARWELYDRSRDPHETQNLATDPRFAQLLEMLRDQLAKWQWETHDPWVCAPDGVLEEKLSPQCQPLHNEL | 12 | 
6 | sulfamidase modified according to the known method (WO 2008/109677) (enzyme, N-glycans oxidised with 20 mM sodium meta-periodate (6.5 h) and reduced with 100 mM sodium borohydride (overnight); FGly50 about 56% converted to Ser; Met184 and Met443 almost completely oxidised) RPRNALLLLADDGGFESGAYNNSAIATPHLDALARRSLLFRNAFTSVSSCSPSRASLLTGLPQHQNGMYGLHQDVHHFNSFDKVRSLPLLLSQAGVRTGIIGKKHVGPETVYPFDFAYTEENGSVLQVGRNITRIKLLVRKFLQTQDDRPFFLYVAFHDPHRCGHSQPQYGTFCEKFGNGESGMGRIPDWTPQAYDPLDVLVPYFVPNTPAARADLAAQYTTVGRMDQGVGLVLQELRDAGVLNDTLVIFTSDNGIPFPSGRTNLYWPGTAEPLLVSSPEHPKRWGQVSEAYVSLLDLTPTILDWFSIPYPSYAIFGSKTIHLTGRSLLPALEAEPLWATVFGSQSHHEVTMSYPMRSVQHRHFRLVHNLNFKMPFPIDQDFYVSPTFQDLLNRTTAGQPTGWYKDLRHYYYRARWELYDRSRDPHETQNLATDPRFAQLLEMLRDQLAKWQWETHDPWVCAPDGVLEEKLSPQCQPLHNEL |  | < 10
7 | sulfamidase modified with R1 oxidation at 22 °C, 30 min, 40 mmol/L sodium meta-periodate (enzyme, N-glycans oxidised with periodate (22 °C, 30 min, 40 mmol/L), then reduced with borohydride as in new method 1) RPRNALLLLADDGGFESGAYNNSAIATPHLDALARRSLLFRNAFTSVSSCSPSRASLLTGLPQHQNGMYGLHQDVHHFNSFDKVRSLPLLLSQAGVRTGIIGKKHVGPETVYPFDFAYTEENGSVLQVGRNITRIKLLVRKFLQTQDDRPFFLYVAFHDPHRCGHSQPQYGTFCEKFGNGESGMGRIPDWTPQAYDPLDVLVPYFVPNTPAARADLAAQYTTVGRMDQGVGLVLQELRDAGVLNDTLVIFTSDNGIPFPSGRTNLYWPGTAEPLLVSSPEHPKRWGQVSEAYVSLLDLTPTILDWFSIPYPSYAIFGSKTIHLTGRSLLPALEAEPLWATVFGSQSHHEVTMSYPMRSVQHRHFRLVHNLNFKMPFPIDQDFYVSPTFQDLLNRTTAGQPTGWYKDLRHYYYRARWELYDRSRDPHETQNLATDPRFAQLLEMLRDQLAKWQWETHDPWVCAPDGVLEEKLSPQCQPLHNEL | 2.7 | 
8 | sulfamidase modified with R1 oxidation at 22 °C, 120 min, 40 mmol/L sodium meta-periodate (enzyme, N-glycans oxidised with periodate (22 °C, 120 min, 40 mmol/L), then reduced with borohydride as in new method 1) RPRNALLLLADDGGFESGAYNNSAIATPHLDALARRSLLFRNAFTSVSSCSPSRASLLTGLPQHQNGMYGLHQDVHHFNSFDKVRSLPLLLSQAGVRTGIIGKKHVGPETVYPFDFAYTEENGSVLQVGRNITRIKLLVRKFLQTQDDRPFFLYVAFHDPHRCGHSQPQYGTFCEKFGNGESGMGRIPDWTPQAYDPLDVLVPYFVPNTPAARADLAAQYTTVGRMDQGVGLVLQELRDAGVLNDTLVIFTSDNGIPFPSGRTNLYWPGTAEPLLVSSPEHPKRWGQVSEAYVSLLDLTPTILDWFSIPYPSYAIFGSKTIHLTGRSLLPALEAEPLWATVFGSQSHHEVTMSYPMRSVQHRHFRLVHNLNFKMPFPIDQDFYVSPTFQDLLNRTTAGQPTGWYKDLRHYYYRARWELYDRSRDPHETQNLATDPRFAQLLEMLRDQLAKWQWETHDPWVCAPDGVLEEKLSPQCQPLHNEL | 3.5 | 
9 | sulfamidase modified with R1 oxidation at 0 °C, 120 min, 10 mmol/L sodium meta-periodate (enzyme, N-glycans oxidised with periodate (0 °C, 120 min, 10 mmol/L), then reduced with borohydride as in new method 1) RPRNALLLLADDGGFESGAYNNSAIATPHLDALARRSLLFRNAFTSVSSCSPSRASLLTGLPQHQNGMYGLHQDVHHFNSFDKVRSLPLLLSQAGVRTGIIGKKHVGPETVYPFDFAYTEENGSVLQVGRNITRIKLLVRKFLQTQDDRPFFLYVAFHDPHRCGHSQPQYGTFCEKFGNGESGMGRIPDWTPQAYDPLDVLVPYFVPNTPAARADLAAQYTTVGRMDQGVGLVLQELRDAGVLNDTLVIFTSDNGIPFPSGRTNLYWPGTAEPLLVSSPEHPKRWGQVSEAYVSLLDLTPTILDWFSIPYPSYAIFGSKTIHLTGRSLLPALEAEPLWATVFGSQSHHEVTMSYPMRSVQHRHFRLVHNLNFKMPFPIDQDFYVSPTFQDLLNRTTAGQPTGWYKDLRHYYYRARWELYDRSRDPHETQNLATDPRFAQLLEMLRDQLAKWQWETHDPWVCAPDGVLEEKLSPQCQPLHNEL | 9.5 | 
10 | sulfamidase modified according to new method 1 (enzyme, N-glycans oxidised with 20 mM sodium meta-periodate (0 °C, 120 min) and reduced with 50 mM sodium borohydride (0 °C, 120 min); FGly50 about 45% converted to Ser) RPRNALLLLADDGGFESGAYNNSAIATPHLDALARRSLLFRNAFTSVSSCSPSRASLLTGLPQHQNGMYGLHQDVHHFNSFDKVRSLPLLLSQAGVRTGIIGKKHVGPETVYPFDFAYTEENGSVLQVGRNITRIKLLVRKFLQTQDDRPFFLYVAFHDPHRCGHSQPQYGTFCEKFGNGESGMGRIPDWTPQAYDPLDVLVPYFVPNTPAARADLAAQYTTVGRMDQGVGLVLQELRDAGVLNDTLVIFTSDNGIPFPSGRTNLYWPGTAEPLLVSSPEHPKRWGQVSEAYVSLLDLTPTILDWFSIPYPSYAIFGSKTIHLTGRSLLPALEAEPLWATVFGSQSHHEVTMSYPMRSVQHRHFRLVHNLNFKMPFPIDQDFYVSPTFQDLLNRTTAGQPTGWYKDLRHYYYRARWELYDRSRDPHETQNLATDPRFAQLLEMLRDQLAKWQWETHDPWVCAPDGVLEEKLSPQCQPLHNEL |  | < 10
11 | sulfamidase modified with R1 oxidation at 0 °C, 120 min, 40 mmol/L sodium meta-periodate (enzyme, N-glycans oxidised with periodate (0 °C, 120 min, 40 mmol/L), then reduced with borohydride as in new method 1) RPRNALLLLADDGGFESGAYNNSAIATPHLDALARRSLLFRNAFTSVSSCSPSRASLLTGLPQHQNGMYGLHQDVHHFNSFDKVRSLPLLLSQAGVRTGIIGKKHVGPETVYPFDFAYTEENGSVLQVGRNITRIKLLVRKFLQTQDDRPFFLYVAFHDPHRCGHSQPQYGTFCEKFGNGESGMGRIPDWTPQAYDPLDVLVPYFVPNTPAARADLAAQYTTVGRMDQGVGLVLQELRDAGVLNDTLVIFTSDNGIPFPSGRTNLYWPGTAEPLLVSSPEHPKRWGQVSEAYVSLLDLTPTILDWFSIPYPSYAIFGSKTIHLTGRSLLPALEAEPLWATVFGSQSHHEVTMSYPMRSVQHRHFRLVHNLNFKMPFPIDQDFYVSPTFQDLLNRTTAGQPTGWYKDLRHYYYRARWELYDRSRDPHETQNLATDPRFAQLLEMLRDQLAKWQWETHDPWVCAPDGVLEEKLSPQCQPLHNEL | 3.5 | 
